Test results published in article PMC11281603.

Biological target: polymeric Ig receptor (pIgR) fused to the FLAG tag (UniProt P01833)
Settings: parent: 1.00

Chain of UniProt P01833 (P01833 19-764): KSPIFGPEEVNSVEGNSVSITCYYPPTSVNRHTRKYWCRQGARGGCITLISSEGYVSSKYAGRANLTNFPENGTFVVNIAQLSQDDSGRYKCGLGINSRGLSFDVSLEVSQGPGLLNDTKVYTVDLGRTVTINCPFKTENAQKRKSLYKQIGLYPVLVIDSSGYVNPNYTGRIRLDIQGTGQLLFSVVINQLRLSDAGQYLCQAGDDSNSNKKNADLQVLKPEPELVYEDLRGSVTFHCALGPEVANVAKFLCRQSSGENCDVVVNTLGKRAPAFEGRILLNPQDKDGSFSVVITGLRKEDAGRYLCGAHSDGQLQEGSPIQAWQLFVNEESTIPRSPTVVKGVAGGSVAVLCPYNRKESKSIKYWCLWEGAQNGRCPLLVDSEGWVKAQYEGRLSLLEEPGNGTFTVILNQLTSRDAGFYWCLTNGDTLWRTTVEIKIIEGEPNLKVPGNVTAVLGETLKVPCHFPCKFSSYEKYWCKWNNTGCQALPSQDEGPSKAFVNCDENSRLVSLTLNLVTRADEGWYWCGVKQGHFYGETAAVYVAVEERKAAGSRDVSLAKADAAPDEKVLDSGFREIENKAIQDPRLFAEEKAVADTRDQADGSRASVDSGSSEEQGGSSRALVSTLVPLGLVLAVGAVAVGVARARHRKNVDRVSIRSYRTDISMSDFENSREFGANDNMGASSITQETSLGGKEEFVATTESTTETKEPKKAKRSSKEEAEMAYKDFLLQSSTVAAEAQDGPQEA

| Substance | ratio to parent |
| --- | --- |
| WT SARS-CoV-2 ORF8 fused to a C-terminal Strep-II tag (from UniProt P0DTC8) C20A | 0.43 |
| WT SARS-CoV-2 ORF8 fused to a C-terminal Strep-II tag (from UniProt P0DTC8) R115A | 1 |
